Measurements: article PMC9398005 (2021)
Each block holds one binder with its values, some of them ahead of it.

Assays:
Assay in all cases: ITC
[1] = biological target: mouse Rbpj (53-474) WT (mouse, UniProt P31266 53-474)
[2] = biological target: Drosophila Su(H) (98-523) K132M (Drosophila, UniProt P28159 98-523, K132M | R155T)
[3] = biological target: Drosophila Su(H) (98-523) E137V (Drosophila, UniProt P28159 98-523, E137V | R155T)
[4] = biological target: mouse Rbpj (53-474) K195E (mouse, UniProt P31266 53-474, K195E)
Chain of mouse Rbpj (53-474) K195E (P31266 53-474 K195E): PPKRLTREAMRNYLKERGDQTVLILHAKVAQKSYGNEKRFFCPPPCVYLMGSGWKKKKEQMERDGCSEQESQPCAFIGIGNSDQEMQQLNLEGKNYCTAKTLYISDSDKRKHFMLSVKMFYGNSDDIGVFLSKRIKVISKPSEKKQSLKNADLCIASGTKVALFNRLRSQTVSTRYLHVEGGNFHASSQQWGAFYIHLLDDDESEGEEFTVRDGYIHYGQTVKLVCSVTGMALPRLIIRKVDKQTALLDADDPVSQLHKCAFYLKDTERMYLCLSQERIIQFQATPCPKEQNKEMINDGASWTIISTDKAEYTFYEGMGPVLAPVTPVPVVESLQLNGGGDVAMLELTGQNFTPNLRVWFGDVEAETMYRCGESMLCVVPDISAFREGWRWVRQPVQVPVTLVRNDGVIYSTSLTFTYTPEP

Chain of mouse Rbpj (53-474) WT (P31266 53-474): as the sequence (P31266 53-474 K195E) above, with E143K counted along it
Chain of Drosophila Su(H) (98-523) K132M (P28159 98-523 K132M/R155T/N281G): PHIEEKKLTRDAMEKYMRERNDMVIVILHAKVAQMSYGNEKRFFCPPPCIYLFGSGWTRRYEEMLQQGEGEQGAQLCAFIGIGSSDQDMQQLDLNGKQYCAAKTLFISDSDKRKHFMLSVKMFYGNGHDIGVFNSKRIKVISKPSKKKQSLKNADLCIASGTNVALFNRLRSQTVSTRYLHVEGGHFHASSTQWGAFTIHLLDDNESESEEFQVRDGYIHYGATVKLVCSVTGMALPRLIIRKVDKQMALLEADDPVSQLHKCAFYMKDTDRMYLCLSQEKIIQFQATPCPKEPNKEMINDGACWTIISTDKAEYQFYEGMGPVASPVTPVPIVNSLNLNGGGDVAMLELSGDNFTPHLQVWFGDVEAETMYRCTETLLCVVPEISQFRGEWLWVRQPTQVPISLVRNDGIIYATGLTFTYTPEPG
Chain of Drosophila Su(H) (98-523) E137V (P28159 98-523 E137V/R155T/N281G): as the sequence (P28159 98-523 K132M/R155T/N281G) above, with M35K, E40V counted along it

Kd [1]: 4 nM
B1: SHARP residues 2776-2833 (domain or fragment)
chain: RASANENSRFHPGSMPVIDDRPADAGSGAGLRVNTSEGVVLLSYSGQKTEGPQRISAK

Kd [2]: 107 nM
Kd [3]: 166 nM
B2: Drosophila Notch RAM peptide (residues 1763-1790) (peptide)
peptide: VLSTQRKRAHGVTWFPEGFRAPAAVMSR

Kd [4]: 22 nM
B3: Notch1 RAM peptide (human Notch1 residues 1754-1781) (peptide)
peptide: VLLSRKRRRQHGQLWFPEGFKVSEASKK
